Measured values from US20190135895A1 (published 2019).

Key:
[1] = biological target: truncated monomeric His-tagged human FcRn (human) (UniProt P55899); assay: SPR (BIAcore 3000), hFcRn injected over immobilized HSA-GST variant, pH 6.0, 1:1 Langmuir model
WT HSA-GST = biological target: T1, WT HSA-GST (human, UniProt P08515 1-218 = GST); assay: ELISA, mFcRn captured on rabbit IgG, pH 6.0
T1 construct: Secreted from HEK293E cells; also called WT-GST; WT HSA fusion

truncated monomeric His-tagged human FcRn (human), sequence (P55899 24-297 limits assumed, chain 1 of 2): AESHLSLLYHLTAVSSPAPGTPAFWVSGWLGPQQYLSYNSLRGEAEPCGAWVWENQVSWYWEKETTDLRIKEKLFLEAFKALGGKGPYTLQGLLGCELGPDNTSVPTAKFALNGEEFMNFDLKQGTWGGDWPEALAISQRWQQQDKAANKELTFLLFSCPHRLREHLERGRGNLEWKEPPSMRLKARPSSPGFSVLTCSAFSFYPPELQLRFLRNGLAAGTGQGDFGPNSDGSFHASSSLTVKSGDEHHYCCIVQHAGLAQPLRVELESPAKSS
truncated monomeric His-tagged human FcRn (human), sequence (chain, as listed by the source limits assumed, chain 2 of 2): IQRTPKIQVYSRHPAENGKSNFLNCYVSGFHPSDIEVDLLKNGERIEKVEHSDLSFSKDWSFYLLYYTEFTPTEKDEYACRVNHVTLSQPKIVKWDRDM

HSA E505Q-GST (from UniProt P08515 1-218)
Kd [1]: 23.1 nM

B1: truncated monomeric His-tagged mouse FcRn (receptor)
chain 1: SETRPPLMYHLTAVSNPSTGLPSFWATGWLGPQQYLTYNSLRQEADPCGAWMWENQVSWYWEKETTDLKSKEQLFLEALKTLEKILNGTYTLQGLLGCELASDNSSVPTAVFALNGEEFMKFNPRIGNWTGEWPETEIVANLWMKQPDAARKESEFLLNSCPERLLGHLERGRRNLEWKEPPSMRLKARPGNSGSSVLTCAAFSFYPPELKFRFLRNGLASGSGNCSTGPNGDGSFHAWSLLEVKRGDEHHYQCQVEHEGLAQPLTVDLDSSARSS
chain 2: IQKTPQIQVYSRHPPENGKPNILNCYVTQFHPPHIEIQMLKNGKKIPKVEMSDMSFSKDWSFYILAHTEFTPTETDTYACRVKHASMAEPKTVYWDRDM
notes: extracellular domain; Made in a Baculovirus system; also called mFcRn; soluble mFcRn; not shown: His tag
binding result (WT HSA-GST): no binding
